Results: the nanobody polyreactivity screen of Harvey et al. (2022)

Assay: yeast display, Sf9 membrane polyspecificity reagent, FACS + sequencing; frameworks hold sequencing errors
In short: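 After 36–48 hours of galactose induction, yeast (Saccharomyces cerevisiae BJ5465) displaying a synthetic nanobody library were stained at 4 °C for 1 hour with 10% biotinylated, detergent-solubilized Sf9 membrane reagent. Streptavidin microbeads enriched the stained cells before FACS sorting into low and high (top ~1%) gates on anti-HA and streptavidin fluorescence. Each clone's polyreactivity label reflects its gate of origin.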

Row | Sequence | polyreactivity (PSR sort gate)
1 | QVQLQESGGGLVQASGSIFHEPNMGWYRQAPGKERELVAGISSGANTYYADSVKGRFTISRDNAKNTVYLQMNSLKPEDTAVYHCAVVVHLYTDLRYWGQDTQVTVSS | high polyreactivity
2 | QVQLQESGGGLVQAVASLRLSCEASVSISSLDYMGWYRQASGKERELVAAIDNGSTTYYADSVKGRLTISRDNAKYTVYLQMNSLKPEDTAVYFCAAVRGRGGTHAYWGQGTQVTVSG | low polyreactivity
3 | QVQLQESGGGLVQAVGSLRLSCAASGNISDYYDMGWYRQAPGKERKFVAGIDFGAITNYADSVKGRFTISRDNAKNTEYLQMSSLKPEDTAVYYCAAGVYDWYAYDYWGQGTQVTVSS | high polyreactivity
4 | QVQLQESGGGLVQAVGSLRLSCAASGYISSWYPMGWYRQAPGKEREFVATIAPGATTYYADSVKGRFTISRDYAKKTVYLQMNSLKPEDTAVYYCAAGPEKNDFYSYWGQGTQVTVSS | low polyreactivity
5 | QVQLQESGGGLVQEGGSLRLSCASSGNISPPADMGWYRQAPGKERELVASMGTGGTTNYADSVKGRFTISRDNAKNTVYLQMNSLKPDDTAVYYCAAVRYEYNPYDYWGQGTQVTVSS | low polyreactivity
6 | QVQLQESGGGLVQGGGSLRLSCAASGSIYRSWYMGWYRQAPGKERELVASITEGATTNYAYSVKAALPLAAITRNTVYLQMDSMKPEDTAVYYRAASFGSTYDLVYWGQGTQVTVSS | high polyreactivity
7 | QVQLQESGGGLVQPGGSLRLSCAATGTISDSGLMGWYRQAPGKERELVSGISSGGITQYADSVNGRFTISRDNAKNTVYLQMNSLKPEDTAVYWGQGTQVTVSS | low polyreactivity
8 | QVQLQESGGGLVQVGGSLRLSCAASGTIFIYGFLGWNRQAPGKERDLVASINLGGITNYADSVKGRFTISRDNAKITVYLQMNSLKPEDTAVYYCAADGGESAWGGYDYWGQGTQGTVSS | low polyreactivity
9 | QVQLQESGGGMVQAGGSLRLSCAASGYISWADYMGWYRQAPGKERELVAGIGYGSTTYYADSVKGRFTISRDNAKNTAYLQMNSLKPEDTAVYYCNADVRYGRDHWGQGTQVTVSS | low polyreactivity
10 | QVQLQESGGGMVQAGGSLRLTCAATGYISSCYPMRWYRQAPGKEREFVATIAPGATTYYADSVKGRFTISRDYAKNTVYLQMNSQKPEATAVYVCAAGPENIDFYSYWGQGTQVTVSS | low polyreactivity
11 | QVQLQESGGGQVLAGGSLRVSCAASGYIPYSRWMGWNRQAPGKEREFVAGIGYGSSTYYADSVKGRFTISRDNAKNTVYLQMNSLKPEDTAVYYCNASIFFRRNVTQVRMDYWGQGSQVTVSS | high polyreactivity
12 | QVQLQESGGGRMQAGGSQRLSCAASGSISYYSDMGWYRQAPGKEREFVAGIGYGTTTNYADSVKGRFTTSRDNAKNTVYLQMISMKPEDTAVYYCAAYQGNGYEFYYWGQGTQVTVRS | low polyreactivity
13 | QVQLQESGGLEQAGVSLRLSCAACGNIFYDTYICWYRQGKERELVASIDHAGSTNYADSVIGRFTISRDNAKNTSYLQRNSLKPDDTAVYYCNAEYTKTGALLIPYTYYYAEDYWGQGTQVTVSS | low polyreactivity
14 | QVQLQESGGLVQAGGLRLSCAASGSDSYQEDMAWYRQAPGKERELVATISFGANTNYADSVKGRFTISRDNAKNTVYLQMNSLKPEDTAVYYCAAESLFDDYYGYWGQGTQVTVSS | low polyreactivity
15 | QVQLQESGGLVQAGGSLRLSCAASGSISGRNVMGWYRQAPGKEREFVASITDGSSTNYADSVKGRFTISRDNAKNTVFLQMNSLKPKDTAVYYCAAYAQGAKSFGYWGRGTQVTVSS | low polyreactivity
16 | QVQLQESGGSLVQAGGSLRLSCAASGNILVLPHGLVSPGAERELVATITGGSITYYADSVKGRFTISRDNAKNTVYLQMNSLKPGDTAVYYCAVINIYHRPHPYWGQGTLVTVSS | high polyreactivity
17 | QVQLQESGGSLVQAGGSLRLSCAASGSISYPRTMGWYRQAPGKEREFVAGIGVGGTTYYADSVKGRFTISRDNAKITVYLQMNSLKPEDTAVYYCARRRSGPSVLYYYWGQGTQVTVSS | low polyreactivity
18 | QVQLQESGGSPVQAGGGLRLSCAASGYISVGSVMGWYRQAPSKERELVASIDQGANTNYADSVKGRFTISRDNAKNNVYLQMNSLKPEDTAVYYCATETTYILNYWGQGTQVTVSS | low polyreactivity
19 | QVQLQESGGVLVQAGGDLRLSCAASGNIFRDYIMGWYRQAPGQERDFVAGIDRGANTNYADSVKGRFTISRDNAKNTVYLQMNSLKPEDTAVYYCAVHTAIVPDFIYWGQGTQVTVSS | low polyreactivity
20 | QVQLQESGGVLVQAGGSLRLSCAARGYISLAQTIGWYRQAPGKEREFVASIALGSSTYYTDSEKGSFTISRDNAKTTVYLQMNSLKPEDTAVYYCAARVGASYAHDYWGQGTEVTVSS | low polyreactivity
21 | QVQLQESGGVLVQAGGSLRLSCAASGSIFVSVTMGWYRQAPGKERELVASIGRGSTTNHADSVKGRFTISRDNAKNIVYLLMNSLKPEDTAVYYCAALESYGKYHGYWGQGTQVTVSS | low polyreactivity

Row | Sequence | polyreactivity (PSR sort gate)
22 | QVQLQESGGVLVQAGGSLRLSCAASGSIYDDTYMGWYRQAPGKERELVATIDSGSTTNYADSVKGRITICRDNAKNSVDLQMNTLKPEDTAVYYCAAADSHIDYFDYWGQGTQVTVSS | low polyreactivity
23 | QVQLQESGGVQEQEGGSLRQSCAESGTIFLYAYMGWYRQAPGKERELVAAIDVGTTTNYADSVKGRFTICRDNAKNTVYLQMNSLKPDDTAVYYCAANLGYLDDLGYWGQGTQVTVSS | low polyreactivity
24 | QVQLQESGRGLVQAGGSLRLSCAASGTISSRWGKGWYLQAPGKERELFASNDQGASTYYADSVKGRFTISRDNAKNTVYLQMNSLKPEDTEVYYCIAVPSSAGDYWGQGTQVTVSS | low polyreactivity
25 | QVQLQESGSGLVQAGGSLRLSCAASGAIFPANLMGWYRQAPGKERELVAGISYGSITYCADSVKGRFNISRDNAKNTVYLQMNSLKPEDTAVYYCAVWRPGGDEYYYWGQGTQVTVSS | low polyreactivity
26 | QVQLQESGVGLVQAGGCLSCTASCTIFGQGDMCWYRQAPGKERELVATINDGASTYYADSVKGRFTISRDKAKNTVYLQMKSLKPDVTAVYYCAVFTDITTYFGYWGQGTQVTVSS | low polyreactivity
27 | QVQLQESGVGLVQAGGSLRLSCAASGYITARDAMVWYRQAPGKEREFVATIASGTTTYYADSVKGSFTISRDNEENTVYLQTNSLKPEDTAVYYCAAPTIQIYPFYYWGQGTQVTVSS | high polyreactivity
28 | QVQLQESRGGLVQAGGSLCLSFAASGTIFFDGDMGGYRQAPGKEREFVAAINPGGSGYYADSVKGRLPLAAITHTVYLQMNSLKPEDTAVYYCAAKLFDVYGYYYWGQGTQVTLSS | low polyreactivity
29 | QVQLQESSGGLVQAGGSLRMSCAASGTIFHFHIMGWYRQAPGKEREFVAAISYGTSTYYADSVKGRFTISRDNAKKTVYLQMNSQKPEDTAVYYCAVYDDLEVYCWYWGQGTEVTVSS | low polyreactivity
30 | QVQLQESVGGLVHAGGSLRLSCAASGSISAVGAMGWYRQAPGKEREFAASVNWGTNTNYADSVKGRFTISRDNAKNTLYLQMNSLKPEDTAVYYCAVLPDWETRHDYWGHGTQVTVSS | low polyreactivity
31 | QVQLQESVGGLVQAGGSLRLSCASSGSISNSAAMGWYRQAPGKERELVVSIGHGASSNYADSVKGRFTISRDNAKNTVYLQMNSLKPEDTAVYYCAAYPGFLDGFFYWGQSTQVTVSS | high polyreactivity
32 | QVQLQESVGGPVLAGGSLRLSCGASGTIFVRLDMGWYRQARGKVREFVATIGSGSSTYYADSVKGSFTISRDNVKNTVYLKMNSLKPEDTAVYYCAVYAAEQSRHYYWDQGTQVTVSS | low polyreactivity
33 | QVQLQGSGGGLVQAGGSLRLSCAASAYIFQNHPMGCNRQAPGKERELVAGIDNGTSTNYADSVNGRFTISRDNAKNTVYLQMNSLKPEDTAVYYCAAAGQADDTLGYWGQGTQVTVSS | low polyreactivity
34 | QVQLQVSGGGLVQAGGSLRLSCAACGSNFLTAEMGWYLQAPGKERELVAAIATGTSTNYADSVKGRFTISRDNAKNTVYLQMNSLKREDTALYYCATYHYWGQGTQVTVSS | low polyreactivity
35 | QVQLRESGAGGRQPAPEMRGERQYFYWSADGLVSQGPGKEREFDAGIDRGTITNYADSVRGRFTISRDNAKNTVYLQMNSLKPEDTAVYYCAVPAYGDPRSYYWGQGTHVTVSS | high polyreactivity
36 | QVQLRESGGGLVQAGGSLRLSCAASGRIFGNYSMGRYRQAPGKEREMVAAISGGGSTYYADSVKGRFTISRDNAKNTVYLQMTSLKPEDTAVYYCADRFLWSVFCRKGGYWGQGTQVTVSS | low polyreactivity
37 | QVQLVASGGGLVQAGGSLLLSCAASGSIFDYNAMGWYRKAPGKERELVAAISSSGGSTYYADSVKGRFTISRDNAKNTVYLQMNSLKPEDTAVYYCNNVSRYILGSGYGYWGQGNQVTVSS | high polyreactivity
38 | QVQLVASGGGLVQAGGSLRFSCAASGRPLSYYAMGWYREAPGKERELVAAISRRGGSTYYADSVKGRFTISRDNAQNTVYIQMNSLKPKDTAVYYCAAETFDYADYIANGSGEYDYWGQGTQVTVSS | high polyreactivity
39 | QVQLVASGGGLVQAGGSLRLSCAASGGTLDYYVMGWYRQAPGKERELVAAISTNGGSTNYADSVKGRFTISRDNAKNTVYLQMNSLKPEDTAVYYCAATSDVYVFLEFDYWGQGTQVTVSS | low polyreactivity
40 | QVQLVASGGGLVQAGGSLRLSSAASGYIFAPNAMGWYRQAPGKERELVAAITFSGGSTSYADSVKGRFTISRDNAKNTVYLQMNSLKPEDTAVYYCNRDDAGIMDYWGLGTQVTVSS | low polyreactivity
41 | QVQLVDSAAGLVQARRSLRLSCAASGRTFPLNVMGWYRLAPGKEREFVAAIRWNGGSTYYADSVKGRFTISRDHAKNTVYLQLNCLIPEDTSVYYCAAQLFRRGRYAGNPMDYWGQGTQVTVSS | high polyreactivity
